This passage reports Ka results from patent WO1997049805A2 (dated 1997).

This test deals with hen egg-white lysozyme (hen, UniProt P00698 19-147). In words: method not stated.

B1: cAb-Lys3 (VHH)
VHH: DVQLQASGGGSVQAGGSLRLSCAASGYTIGPYCMGWFRQAPGKEREGVAAINMGGGITYYADSVKGRFTISQDNAKNTVYLLMNSLEPEDTAIYYCAADSTIYASYYECGHGLSTGGYGYDSWGQGTQVTVSS
For the molecule B1, the Ka is 2e+07 M⁻¹.
